T1: rat SEZ6 on RIN-m5F cells (rat, UniProt Q7TSK2 20-991 (mouse entry))
T1 construct: endogenous on RIN-m5F cells; also called rSEZ6
T1 chain: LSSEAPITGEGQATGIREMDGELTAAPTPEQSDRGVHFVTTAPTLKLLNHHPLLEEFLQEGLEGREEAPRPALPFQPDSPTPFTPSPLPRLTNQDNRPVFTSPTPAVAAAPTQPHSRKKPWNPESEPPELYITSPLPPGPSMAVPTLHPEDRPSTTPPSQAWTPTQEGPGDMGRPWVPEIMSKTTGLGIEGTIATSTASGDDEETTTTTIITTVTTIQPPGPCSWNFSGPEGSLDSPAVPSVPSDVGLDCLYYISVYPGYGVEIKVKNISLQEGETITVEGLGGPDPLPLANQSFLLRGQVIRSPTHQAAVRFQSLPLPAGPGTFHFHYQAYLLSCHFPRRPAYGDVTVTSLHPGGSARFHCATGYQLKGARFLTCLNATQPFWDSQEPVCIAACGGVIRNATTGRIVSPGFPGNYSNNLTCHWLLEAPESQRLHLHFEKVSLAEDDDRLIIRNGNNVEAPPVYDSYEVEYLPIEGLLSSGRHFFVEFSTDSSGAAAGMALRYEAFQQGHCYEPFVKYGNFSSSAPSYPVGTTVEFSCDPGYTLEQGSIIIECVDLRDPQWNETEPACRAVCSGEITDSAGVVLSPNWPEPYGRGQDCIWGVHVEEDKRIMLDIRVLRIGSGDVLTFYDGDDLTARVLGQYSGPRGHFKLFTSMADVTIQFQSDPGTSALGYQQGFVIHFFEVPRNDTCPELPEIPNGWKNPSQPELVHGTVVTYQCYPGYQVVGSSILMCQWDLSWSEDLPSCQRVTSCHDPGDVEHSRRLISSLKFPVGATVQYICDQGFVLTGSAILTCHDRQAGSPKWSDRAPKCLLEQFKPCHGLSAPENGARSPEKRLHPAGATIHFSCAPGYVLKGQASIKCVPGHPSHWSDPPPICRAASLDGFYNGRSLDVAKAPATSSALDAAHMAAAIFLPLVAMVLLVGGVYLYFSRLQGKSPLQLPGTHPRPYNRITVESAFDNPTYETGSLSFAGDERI

T2: rSEZ6-ECD-His (rat, UniProt Q7TSK2 20-922 (mouse entry))
T2 construct: the whole entry is named; also called rat recombinant SEZ6-His; rat SEZ6 ECD
T2 chain: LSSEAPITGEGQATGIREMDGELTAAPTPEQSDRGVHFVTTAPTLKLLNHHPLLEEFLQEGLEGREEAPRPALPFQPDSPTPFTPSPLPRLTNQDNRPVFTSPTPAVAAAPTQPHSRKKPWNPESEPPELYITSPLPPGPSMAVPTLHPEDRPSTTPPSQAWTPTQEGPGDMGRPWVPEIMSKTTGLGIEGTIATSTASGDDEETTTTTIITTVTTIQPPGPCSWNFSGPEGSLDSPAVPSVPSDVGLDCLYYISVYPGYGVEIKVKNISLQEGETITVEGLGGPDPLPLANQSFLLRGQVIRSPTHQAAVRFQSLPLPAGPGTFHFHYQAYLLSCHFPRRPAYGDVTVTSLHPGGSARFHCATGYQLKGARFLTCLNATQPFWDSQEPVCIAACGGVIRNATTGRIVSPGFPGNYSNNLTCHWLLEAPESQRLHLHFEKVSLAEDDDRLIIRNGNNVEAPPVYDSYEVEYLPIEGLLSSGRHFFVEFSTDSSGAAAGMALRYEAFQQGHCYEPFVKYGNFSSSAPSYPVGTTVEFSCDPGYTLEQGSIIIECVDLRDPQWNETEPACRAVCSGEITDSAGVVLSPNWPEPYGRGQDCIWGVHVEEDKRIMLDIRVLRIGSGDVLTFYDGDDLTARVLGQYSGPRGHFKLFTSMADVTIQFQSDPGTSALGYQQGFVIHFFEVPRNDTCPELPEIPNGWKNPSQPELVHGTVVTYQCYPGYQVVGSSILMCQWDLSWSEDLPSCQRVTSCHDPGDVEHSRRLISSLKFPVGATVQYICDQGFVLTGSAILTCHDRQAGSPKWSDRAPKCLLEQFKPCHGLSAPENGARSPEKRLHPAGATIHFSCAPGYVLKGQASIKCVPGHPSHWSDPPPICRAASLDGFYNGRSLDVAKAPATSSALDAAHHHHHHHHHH


Assays:
[1] = molecular target: T1, rat SEZ6 on RIN-m5F cells; test: flow cytometry, RIN-m5F cells, 5 ug/mL antibody
Description: Briefly 1×10⁵ cells per well of Neuro2a, RIN-5mF, or yeast displaying cynomolgus SEZ6 cells were incubated for 30 minutes with 50 μL PBS (2% FCS) buffer with 5 μg/mL antibody. […] After incubating for 15 minutes cells were washed twice with the PBS buffer and re-suspended in the same with DAPI for flow cytometry analysis of Neuro2a and Rin-m5F or buffer without DAPI for flow cytometric analysis of yeast cells with cSEZ6.

rSEZ6-ECD-His = molecular target: T2, rSEZ6-ECD-His; test: bio-layer interferometry (ForteBio RED) or surface plasmon resonance (Biacore 2000) on rat SEZ6-His; the table does not say which; column Rat XR (Kd, nM)
Excerpt: Various methods were used to analyze the binding and immunochemical characteristics of selected SEZ6 modulators generated as set forth above.

binding result [1] | Kd (rSEZ6-ECD-His) | Binder
binds | 5 nM | SC17.17 (antibody, V domains shown, murine mAb) VH: EVQLQQSGPEVMKPGASVKMSCKASGYTFTDYNMHWVKQNQGKSLEWIGEINPNIGGTGYNQKFKGKATLTVHKSSSTAYMELRSLTSEDSAVYYCARTYSYYSYEFAYWGQGTLVTVSA VL: QIVLTQSPAIMSASPGEKVTMTCSASSSVSYMHWYQQKSGTSPKRWIYDTSKLPSGVPARFSGSGSGTSYSLTISSMEAEDAATYYCQQWSSTPPTFGAGTKLELK
binds | 79.5 nM | SC17.34 (antibody, V domains shown, murine mAb) VH: EVQLQQSGPELVKPGSSVKISCKASGYTFTDYNMDWVKQSHGKRLEWIGYIYPDNGGAGYNQKFKGKATLTVDKSSSTAYMELRSLTSEDSAVYYCSRSITTAWFAYWGQGTLVTVSA VL: DIKMTQSPSSMYASLGERVTITCKASQDINSYLSWFQQKPGKSPKTLIYRANRLVDGVPSRFSGSGSGQDYSLTISSLEYEDMGIYYCLQYDEFPPTFGGGTKLEIK

Reference: patent publication US20190022241A1 (AbbVie / Abbott, published 2019)
